Laboratory results taken from patent US20250189530A1 (STCUBE, published 2025).

Key:
[1] = molecular target: peptide 4 variant D366A expressed by HEK293T cells (human); assay: western blot, STC43H11-1 band over Flag band
[2] = molecular target: peptide 4 variant R367A expressed by HEK293T cells (human); assay: western blot, STC43H11-1 band over Flag band
[3] = molecular target: peptide 4 variant A371G expressed by HEK293T cells (human); assay: western blot, STC43H11-1 band over Flag band
[4] = molecular target: peptide 4 variant G365A expressed by HEK293T cells (human); assay: western blot, STC43H11-1 band over Flag band
[5] = molecular target: peptide 4 variant I372A expressed by HEK293T cells (human); assay: western blot, STC43H11-1 band over Flag band
[6] = molecular target: peptide 4 variant V362A expressed by HEK293T cells (human); assay: western blot, STC43H11-1 band over Flag band
[7] = molecular target: peptide 4 variant V374A expressed by HEK293T cells (human); assay: western blot, STC43H11-1 band over Flag band
[8] = molecular target: peptide 4 variant E361A expressed by HEK293T cells (human); assay: western blot, STC43H11-1 band over Flag band
[9] = molecular target: peptide 4 variant W370A expressed by HEK293T cells (human); assay: western blot, STC43H11-1 band over Flag band
[10] = molecular target: peptide 4 variant D369A expressed by HEK293T cells (human); assay: western blot, STC43H11-1 band over Flag band
[11] = molecular target: peptide 4 WT expressed by HEK293T cells (human); assay: western blot, STC43H11-1 band over Flag band
[12] = molecular target: peptide 4 variant T368A expressed by HEK293T cells (human); assay: western blot, STC43H11-1 band over Flag band
[13] = molecular target: peptide 4 variant G373A expressed by HEK293T cells (human); assay: western blot, STC43H11-1 band over Flag band
[14] = molecular target: peptide 4 variant E363A expressed by HEK293T cells (human); assay: western blot, STC43H11-1 band over Flag band
[15] = molecular target: peptide 4 variant V364A expressed by HEK293T cells (human); assay: western blot, STC43H11-1 band over Flag band
[16] = molecular target: peptide 4 variant C375A expressed by HEK293T cells (human); assay: western blot, STC43H11-1 band over Flag band
[17] = molecular target: TRIM variant expressed by HEK293T cells; assay: western blot, STC43H11-1 band over Flag band
[18] = molecular target: T1, BTN1A1 peptide 4 Mutant 7 (R367A) (human); assay: kinetics of peptide on STC43H11-1, separate assay, method not named
T1 construct: The entry already carries the mutation; also called BTN1A1-pep4- Mutant 7
T1 peptide: EVEVGDATDWAIGVC

[19] = molecular target: T2, CILK1 peptide AQPVHGRTDWASKYA; assay: SPR sensorgrams (Response in RU), 15.625, 31.25, 62.5, 125 and 500 nM
T2 construct: also called serine/threonine-protein kinase ICK (CILK) isoform 2 peptide
T2 peptide: AQPVHGRTDWASKYA

[20] = molecular target: peptide 4 variant D366A expressed by HEK293T cells (human); assay: western blot, HEK293T lysate, antibody 1 ug/ml
[21] = molecular target: peptide 4 variant R367A expressed by HEK293T cells (human); assay: western blot, HEK293T lysate, antibody 1 ug/ml
[22] = molecular target: peptide 4 variant A371G expressed by HEK293T cells (human); assay: western blot, HEK293T lysate, antibody 1 ug/ml
[23] = molecular target: peptide 4 variant G365A expressed by HEK293T cells (human); assay: western blot, HEK293T lysate, antibody 1 ug/ml
[24] = molecular target: peptide 4 variant I372A expressed by HEK293T cells (human); assay: western blot, HEK293T lysate, antibody 1 ug/ml
[25] = molecular target: peptide 4 variant V362A expressed by HEK293T cells (human); assay: western blot, HEK293T lysate, antibody 1 ug/ml
[26] = molecular target: peptide 4 variant V374A expressed by HEK293T cells (human); assay: western blot, HEK293T lysate, antibody 1 ug/ml
[27] = molecular target: peptide 4 variant E361A expressed by HEK293T cells (human); assay: western blot, HEK293T lysate, antibody 1 ug/ml
[28] = molecular target: peptide 4 variant W370A expressed by HEK293T cells (human); assay: western blot, HEK293T lysate, antibody 1 ug/ml
[29] = molecular target: peptide 4 variant D369A expressed by HEK293T cells (human); assay: western blot, HEK293T lysate, antibody 1 ug/ml
[30] = molecular target: peptide 4 WT expressed by HEK293T cells (human); assay: western blot, HEK293T lysate, antibody 1 ug/ml
[31] = molecular target: peptide 4 variant T368A expressed by HEK293T cells (human); assay: western blot, HEK293T lysate, antibody 1 ug/ml
[32] = molecular target: peptide 4 variant G373A expressed by HEK293T cells (human); assay: western blot, HEK293T lysate, antibody 1 ug/ml
[33] = molecular target: peptide 4 variant E363A expressed by HEK293T cells (human); assay: western blot, HEK293T lysate, antibody 1 ug/ml
[34] = molecular target: peptide 4 variant V364A expressed by HEK293T cells (human); assay: western blot, HEK293T lysate, antibody 1 ug/ml
[35] = molecular target: peptide 4 variant C375A expressed by HEK293T cells (human); assay: western blot, HEK293T lysate, antibody 1 ug/ml
[36] = molecular target: TRIM variant expressed by HEK293T cells; assay: western blot, HEK293T lysate, antibody 1 ug/ml

B1: STC43H11-1 (antibody, V domains shown)
VH: QSLEESGGRLVTPGGSLTLTCTVSGIDLSSYAMGWVRQAPGEGLEWIGSIGTGGGTGYASWAKGRFTISKTSTTVDLKMTSLTASDTATYFCATSNLWGPGTLVTVSS
VL: QVLTQTASPVSAAVGGTVTINCQASQSVYNNNRCSWFQQKPGQPPKRLIYHTSTLDSGVPSRFKGSGSGTQFTLTISDVQCDDAATYYCLGNYDCSRADCAAFGGGTEVVVK
notes: From immunized New Zealand rabbits; IgG heavy chain and Kappa light chain; also called clone #43H11; Clone 43H11
[1]
  Normalized Fold: -0.0409
[2]
  Normalized Fold: 0.239
[3]
  Normalized Fold: 0.045
[4]
  Normalized Fold: 0.414
[5]
  Normalized Fold: 0.000608
[6]
  Normalized Fold: 1.18
[7]
  Normalized Fold: 0.237
[8]
  Normalized Fold: 0.231
[9]
  Normalized Fold: 0.0394
[10]
  Normalized Fold: 0.000853
[11]
  Normalized Fold: 0.478
[12]
  Normalized Fold: 0.0496
[13]
  Normalized Fold: 0.0107
[14]
  Normalized Fold: 0.323
[15]
  Normalized Fold: 0.128
[16]
  Normalized Fold: 1.32
[17]
  Normalized Fold: -0.00102
[18]
  Kd: 0.339 nM
  koff: 0.000153 s⁻¹
  kon: 453000 M⁻¹ s⁻¹
[19]
  binding result: no binding (tested: 500 nM)
[20]
  STC43H11-1 Adj. Vol. (Int): -228000
[21]
  STC43H11-1 Adj. Vol. (Int): 1.48e+06
[22]
  STC43H11-1 Adj. Vol. (Int): 156000
[23]
  STC43H11-1 Adj. Vol. (Int): 2.26e+06
[24]
  STC43H11-1 Adj. Vol. (Int): 4010
[25]
  STC43H11-1 Adj. Vol. (Int): 7.03e+06
[26]
  STC43H11-1 Adj. Vol. (Int): 672000
[27]
  STC43H11-1 Adj. Vol. (Int): 1.35e+06
[28]
  STC43H11-1 Adj. Vol. (Int): 221000
[29]
  STC43H11-1 Adj. Vol. (Int): 5470
[30]
  STC43H11-1 Adj. Vol. (Int): 4.02e+06
[31]
  STC43H11-1 Adj. Vol. (Int): 374000
[32]
  STC43H11-1 Adj. Vol. (Int): 19900
[33]
  STC43H11-1 Adj. Vol. (Int): 2.61e+06
[34]
  STC43H11-1 Adj. Vol. (Int): 480000
[35]
  STC43H11-1 Adj. Vol. (Int): 4.8e+06
[36]
  STC43H11-1 Adj. Vol. (Int): -7610
